From the supplement of paper PMC10567573

B1: TMEM192 (parent)
chain: ILGKVILWILHLLLECYIQYHHSK

Variants of: B1
Assay: protein stability index of a GFP-peptide fusion (GPS, HEK-293T) (PSI 1-6); higher = more stable
Details: c terminus: a fixed tail appended
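Also: lentivirally expressed fusions sorted by FACS into six bins by GFP to DsRed ratio, PSI derived from sequencing read proportions per bin multiplied by bin number.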

Point of comparison: ILGKVELWILHLLLECYIQYHHSK, protein stability index 2.55. Against it:
- ILGKSILWILHLLLECYIQYHHSK — higher, 3.18
- ILGKDILWILHLLLECYIQYHHSK — higher, 3.49
- ILGKQILWILHLLLECYIQYHHSK — higher, 2.86
- ILGKYILWILHLLLECYIQYHHSK — higher, 4.62
- ILGKIILWILHLLLECYIQYHHSK — higher, 3.3
- ILGKWILWILHLLLECYIQYHHSK — higher, 3.91
- ILGKEILWILHLLLECYIQYHHSK — higher, 3.81
- ILGKGILWILHLLLECYIQYHHSK — higher, 3.88
- ILGKAILWILHLLLECYIQYHHSK — higher, 2.85
- ILGKCILWILHLLLECYIQYHHSK — higher, 2.73
- ILGKNILWILHLLLECYIQYHHSK — the same, 2.55
- ILGKFILWILHLLLECYIQYHHSK — higher, 2.7
- ILGKMILWILHLLLECYIQYHHSK — higher, 3.23
- ILGKKILWILHLLLECYIQYHHSK — lower, 2.08
- ILGKPILWILHLLLECYIQYHHSK — lower, 1.85
- ILGKHILWILHLLLECYIQYHHSK — lower, 2.2
- ILGKRILWILHLLLECYIQYHHSK — lower, 2.43
- ILGKTILWILHLLLECYIQYHHSK — lower, 2.49
- ILYKVILWILHLLLECYIQYHHSK — higher, 3.82
- ILEKVILWILHLLLECYIQYHHSK — higher, 2.62
- ILFKVILWILHLLLECYIQYHHSK — higher, 2.9
- ILKKVILWILHLLLECYIQYHHSK — higher, 3.66
- ILMKVILWILHLLLECYIQYHHSK — higher, 2.76
- ILHKVILWILHLLLECYIQYHHSK — higher, 2.67
- ILVKVILWILHLLLECYIQYHHSK — lower, 2.32
- ILDKVILWILHLLLECYIQYHHSK — higher, 3.06
- ILNKVILWILHLLLECYIQYHHSK — higher, 2.87
- ILWKVILWILHLLLECYIQYHHSK — higher, 2.58
- ILIKVILWILHLLLECYIQYHHSK — higher, 2.58
- ILRKVILWILHLLLECYIQYHHSK — higher, 3.69
- ILTKVILWILHLLLECYIQYHHSK — higher, 3.14
- ILSKVILWILHLLLECYIQYHHSK — lower, 1.95
- ILLKVILWILHLLLECYIQYHHSK — higher, 2.76
- ILPKVILWILHLLLECYIQYHHSK — higher, 3.89
- ILCKVILWILHLLLECYIQYHHSK — higher, 3.41
- ILQKVILWILHLLLECYIQYHHSK — higher, 3.27
- ILGKVIMWILHLLLECYIQYHHSK — lower, 1.54
- ILGKVIRWILHLLLECYIQYHHSK — lower, 1.75
- ILGKVIVWILHLLLECYIQYHHSK — lower, 1.74
- ILGKVIYWILHLLLECYIQYHHSK — higher, 2.85
- ILGKVIQWILHLLLECYIQYHHSK — higher, 3.32
- ILGKVISWILHLLLECYIQYHHSK — higher, 3.17
- ILGKVIFWILHLLLECYIQYHHSK — higher, 2.7
- ILGKVICWILHLLLECYIQYHHSK — lower, 2.19
- ILGKVINWILHLLLECYIQYHHSK — lower, 2.51
- ILGKVITWILHLLLECYIQYHHSK — higher, 3.57
- ILGKVIDWILHLLLECYIQYHHSK — higher, 2.86
- ILGKVIWWILHLLLECYIQYHHSK — higher, 3.41
- ILGKVIHWILHLLLECYIQYHHSK — higher, 2.6
- ILGKVIGWILHLLLECYIQYHHSK — higher, 4.45
- ILGKVIKWILHLLLECYIQYHHSK — lower, 2.36
- ILGKVIEWILHLLLECYIQYHHSK — higher, 3.07
- ILGKVIPWILHLLLECYIQYHHSK — lower, 1.85
- ILGKVIIWILHLLLECYIQYHHSK — lower, 2.24
- ISGKVILWILHLLLECYIQYHHSK — higher, 2.82
- IDGKVILWILHLLLECYIQYHHSK — lower, 2.04
- IQGKVILWILHLLLECYIQYHHSK — lower, 2.41
- IVGKVILWILHLLLECYIQYHHSK — higher, 3.54
- IGGKVILWILHLLLECYIQYHHSK — higher, 3.77
- IRGKVILWILHLLLECYIQYHHSK — higher, 2.75
- IKGKVILWILHLLLECYIQYHHSK — higher, 3.23
- IAGKVILWILHLLLECYIQYHHSK — lower, 2.41
- IYGKVILWILHLLLECYIQYHHSK — higher, 2.77
- INGKVILWILHLLLECYIQYHHSK — higher, 2.93
- IFGKVILWILHLLLECYIQYHHSK — higher, 2.86
- IEGKVILWILHLLLECYIQYHHSK — lower, 2.32
- IPGKVILWILHLLLECYIQYHHSK — higher, 2.74
- IHGKVILWILHLLLECYIQYHHSK — lower, 1.91
- IWGKVILWILHLLLECYIQYHHSK — lower, 2.18
- ITGKVILWILHLLLECYIQYHHSK — higher, 3.29
- ILGPVILWILHLLLECYIQYHHSK — lower, 1.73
- ILGWVILWILHLLLECYIQYHHSK — higher, 2.93
- ILGRVILWILHLLLECYIQYHHSK — lower, 1.83
- ILGAVILWILHLLLECYIQYHHSK — higher, 2.97
- ILGLVILWILHLLLECYIQYHHSK — higher, 3.75
- ILGGVILWILHLLLECYIQYHHSK — higher, 3.12
- ILGSVILWILHLLLECYIQYHHSK — higher, 2.9
- ILGIVILWILHLLLECYIQYHHSK — higher, 2.81
- ILGHVILWILHLLLECYIQYHHSK — higher, 4.67
- ILGVVILWILHLLLECYIQYHHSK — higher, 2.92
- ILGMVILWILHLLLECYIQYHHSK — higher, 3.11
- ILGNVILWILHLLLECYIQYHHSK — higher, 2.98
- ILGFVILWILHLLLECYIQYHHSK — higher, 3.11
- ILGEVILWILHLLLECYIQYHHSK — lower, 2.46
- ILGTVILWILHLLLECYIQYHHSK — higher, 2.8
- ILGYVILWILHLLLECYIQYHHSK — higher, 2.87
- ILGDVILWILHLLLECYIQYHHSK — higher, 3.04
- ILGKVYLWILHLLLECYIQYHHSK — higher, 2.98
- ILGKVKLWILHLLLECYIQYHHSK — higher, 3.39
- ILGKVDLWILHLLLECYIQYHHSK — higher, 3.23
- ILGKVWLWILHLLLECYIQYHHSK — higher, 2.72
- ILGKVALWILHLLLECYIQYHHSK — lower, 1.4
- ILGKVSLWILHLLLECYIQYHHSK — higher, 3.76
